# Experimental data: PMC5610242, “Stapled peptide inhibitors of RAB25 target context-specific phenotypes in cancer” (Nature Communications, 2017)
# Bridge positions count the residues as written; N and C are the ends. Square brackets hold non-standard residues; d marks the D form. Ends that are not written are not given here. Peptide text beside a SMILES is read from it. * marks the point of attachment. FITC = O=C1OC2(c3ccc(O)cc3Oc3cc(O)ccc32)c2ccc(NC(=S)*)cc21; Met(O) = CS(=O)CC[C@H](N)C(=O)O; S5 = C=CCCC[C@](C)(N)C(=O)O; Nle = CCCC[C@H](N)C(=O)O; PEG = not defined here; βAla = NCCC(=O)O
# B1: FITC-RFP1 (unmodified FIP1 RAB-binding domain peptide) (peptide)
# peptide: {FITC-PEG}-KKEFQVRELEDYIDNLLVRVMEETPNILRIPA
# modifications: reading uncertain
# notes: also called fRFP1; FIP1 peptide; source: synthetic peptide (Fmoc solid phase, HPLC purified)
# B2: FITC-RFP2 (unmodified FIP2 RAB-binding domain peptide) (peptide)
# peptide: {FITC-PEG}-ERDTHIRELEDYIDNLLVRVMEETPSILRVPR
# modifications: reading uncertain
# notes: limits worked out from the printed L485, V486 and M489; also called fRFP2; FIP2 peptide; source: synthetic peptide (Fmoc solid phase, HPLC purified)
# B3: FITC-RFP5 (FIP3 RAB-binding domain peptide with oxidised methionine) (peptide)
# peptide: {FITC-PEG}-KQEEINFRLQDYIDRIIVAI[Met(O)]ETNPSILEVK
# modifications: reading uncertain
# notes: also called fRFP5; source: synthetic peptide (separable byproduct of chemical synthesis, HPLC purified)
# B4: FITC-RFP3 (unmodified FIP3 RAB-binding domain peptide) (peptide)
# peptide: {FITC-PEG}-KQEEINFRLQDYIDRIIVAIMETNPSILEVK
# modifications: reading uncertain
# notes: also called fRFP3; FIP3 peptide; source: synthetic peptide (Fmoc solid phase, HPLC purified)
# B5: FITC-RFP4 (unmodified FIP4 RAB-binding domain peptide) (peptide)
# peptide: {FITC-PEG}-EQEEINFRLRQYMDKIILAILDHNPSILEIKH
# modifications: reading uncertain
# notes: also called fRFP4; FIP4 peptide; source: synthetic peptide (Fmoc solid phase, HPLC purified)
# Tests used:
# [1] = target: T1, RAB11a (activated Q70L mutant) (Homo sapiens, UniProt P62491, Q70L); test: Fluorescence polarization binding of FITC-labeled RFP peptides to RAB11a; details: FP
# T1 construct: GST-RAB11a (1–173, Q70L mutant) in pGEX5x-1; made in house; host or cells: E. coli BL21
# T1 sequence (P62491 1-173 Q70L): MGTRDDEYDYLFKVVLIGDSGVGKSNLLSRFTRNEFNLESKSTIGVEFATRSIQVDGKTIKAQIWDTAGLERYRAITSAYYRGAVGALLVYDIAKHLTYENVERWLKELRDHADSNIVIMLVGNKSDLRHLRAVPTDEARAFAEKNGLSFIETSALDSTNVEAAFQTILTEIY
# Procedure: (§1) Fluorescence polarization assays were performed with for GST-RAB25 and GST-RAB11a to quantify binding to FITC-labeled unmodified and stapled RFP peptides. Initial fluorescence polarization measurements for RFP1−RFP13 were made by incubating FITC-RFP peptides (25 nM) with threefold dilutions of a given protein in FP buffer, consisting of 20 mM Tris pH 8.0, 150 mM NaCl, 5 mM MgCl2, 2 mM DTT, 10 μM GTP and 2% glycerol. Dilutions and incubations were performed in 96-well, black flat-bottom plates (Nunc) to a total volume of 100 μL, and equilibrated at room temperature for 30 min. Polarization was measured on a Spetramax-M5 multi-label plate reader (Molecular Devices) with λ ex = 485 nm and λ em = 525 nm. Polarization values were determined using the equation: P = (V − H)/(V + H), where P denotes polarization, V denotes vertical emission intensity and H represents horizontal emission intensity. Fraction bound was calculated using the equilibrium maximum polarization value obtained for a given protein among ligands, to which background-subtracted fluorescence polarization values were internally normalized. Fluorescence polarization measurements for FITC-RFP14, 24, 26, 31, and 32 were performed as detailed above with the exception that 10 nM FITC-ligand was used.
# RAB25 = target: T2, RAB25 (Homo sapiens, UniProt P57735); test: Fluorescence polarization binding of FITC-labeled RFP peptides to RAB25; details: FP, 30 min room temperature
# T2 construct: GST-RAB25 (1–180) in pET41 Ek/LIC; made in house; host or cells: E. coli BL21
# T2 sequence (P57735 1-180): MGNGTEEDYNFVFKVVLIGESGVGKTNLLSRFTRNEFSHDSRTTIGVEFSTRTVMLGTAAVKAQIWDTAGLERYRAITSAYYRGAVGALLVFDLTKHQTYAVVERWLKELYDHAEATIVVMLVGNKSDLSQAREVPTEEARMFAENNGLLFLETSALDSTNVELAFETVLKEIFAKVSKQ
# Procedure: as §1
# [2] = target: T3, GST-RAB11a (1-173, Q70L mutant) (UniProt P62491 1-173, Q70L); test: fluorescence polarisation; as for RFP1-13 but FITC-ligand 10 nM, with threefold dilutions of GST-RAB protein; 20 mM Tris pH 8.0, 150 mM NaCl, 5 mM MgCl2, 2 mM DTT, 10 µM GTP, 2% glycerol; room temperature, 30 min; apparent Kd from a sigmoidal (4-parameter) fit, 95% confidence interval; details: both partners purified
# T3 construct: source: E. coli BL21, purified (glutathione sepharose, Superdex 75 gel filtration)
# T3 sequence (looked up): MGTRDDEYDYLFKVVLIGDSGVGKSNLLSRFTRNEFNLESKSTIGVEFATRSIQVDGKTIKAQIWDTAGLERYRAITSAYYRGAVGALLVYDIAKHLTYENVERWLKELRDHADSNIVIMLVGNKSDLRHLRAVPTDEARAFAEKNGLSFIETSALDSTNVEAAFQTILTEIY
# GST-RAB25 (1-180) [3] = target: T4, GST-RAB25 (1-180) (UniProt P57735 1-180); test: as above; details: both partners purified
# T4 construct: RAB25, residues 1-180, in pET41 Ek/LIC; source: E. coli BL21, purified (glutathione sepharose, Superdex 75 gel filtration)
# T4 sequence (looked up): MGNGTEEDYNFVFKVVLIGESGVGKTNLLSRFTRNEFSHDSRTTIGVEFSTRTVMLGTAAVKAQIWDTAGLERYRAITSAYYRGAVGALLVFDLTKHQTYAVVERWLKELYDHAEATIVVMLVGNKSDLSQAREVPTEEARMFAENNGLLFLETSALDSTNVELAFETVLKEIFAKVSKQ
# [4] = target: T3, GST-RAB11a (1-173, Q70L mutant); test: fluorescence polarisation; FITC-peptide 25 nM with threefold dilutions of GST-RAB protein; 20 mM Tris pH 8.0, 150 mM NaCl, 5 mM MgCl2, 2 mM DTT, 10 µM GTP, 2% glycerol; room temperature, 30 min; apparent Kd from a sigmoidal (4-parameter) fit, 95% confidence interval; details: both partners purified
# GST-RAB25 (1-180) [5] = target: T4, GST-RAB25 (1-180); test: as above; details: both partners purified
# GST-RAB25 (1-180) [6] = target: GST-RAB25 (1-180) (UniProt P57735); test: as above
# His6-RAB25 (1–180) = target: T5, His6-RAB25 (1–180) (UniProt P57735 1-180); test: competition with bio-RFP14 (ALPHAscreen)
# T5 chain: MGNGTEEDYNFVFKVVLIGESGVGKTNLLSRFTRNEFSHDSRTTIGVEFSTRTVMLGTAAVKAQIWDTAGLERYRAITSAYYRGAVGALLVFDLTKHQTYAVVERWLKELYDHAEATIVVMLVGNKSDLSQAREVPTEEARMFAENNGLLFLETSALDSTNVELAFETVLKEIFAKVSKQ
Molecule,Kd [4] [nM],Kd (GST-RAB25 (1-180) [5]) [nM],also measured
CC[C@H](C)[C@H](NC(=O)[C@H](CCCNC(=N)N)NC(=O)[C@H](C)NC(=O)[C@H](C)NC(=O)[C@]1(C)CCCC=CCCC[C@](C)(NC(=O)[C@H](CC(N)=O)NC(=O)[C@H](CCC(N)=O)NC(=O)[C@H](CC(C)C)NC(=O)[C@H](CCCNC(=N)N)NC(=O)[C@H](Cc2ccccc2)NC(=O)[C@H](CC(N)=O)NC(=O)[C@@H](NC(=O)[C@H](CCCNC(=N)N)NC(=O)CCNC(=O)[C@@H](N)Cc2c[nH]c3ccccc23)[C@@H](C)CC)C(=O)N[C@@H]([C@@H](C)CC)C(=O)N[C@@H](CC(=O)O)C(=O)N[C@@H](CCCNC(=N)N)C(=O)N1)C(=O)N[C@@H](C)C(=O)N[C@@H](CCC(=O)O)C(=O)N[C@H](C(=O)N[C@@H](CC(N)=O)C(=O)N1CCC[C@H]1C(=O)N[C@@H](CO)C(=O)N[C@H](C(=O)N[C@@H](CC(C)C)C(=O)N[C@@H](CCCNC(=N)N)C(=O)N[C@H](C(=O)N[C@@H](CCCCN)C(N)=O)C(C)C)[C@@H](C)CC)[C@@H](C)O [RFP32] (H-W[βAla]RINFRLQN[S5]IDR[S5]AARIAETNPSILRVK-NH2; staple 11-15),,,"Kd ([1]; 10 nM FITC-ligand, GST-RAB11a (1–173, Q70L), FP buffer pH 8.0 with 10 μM GTP, 30 min room temperature, mean with 95% C.I., triplicate, read-out: apparent Kd (95% C.I.) RAB11a): > 5000 nM; Kd (RAB25; 10 nM FITC-ligand, GST-RAB25, FP buffer pH 8.0 with 10 μM GTP, mean with 95% C.I., triplicate, read-out: apparent Kd (95% C.I.) RAB25): > 5000 nM"
"RFP5: peptide with oxidation of a methionine involved in binding, a separable byproduct of chemical synthesis ({FITC-PEG}-KQEEINFRLQDYIDRIIVAI[Met(O)]ETNPSILEVK; reading uncertain)",,,loss of binding affinity for RAB11a on methionine oxidation ([1]; relative to non-oxidised peptide): ~ fivefold
"FIP2: unmodified Class-I peptide encompassing the RAB-binding domain of FIP2, FITC-labeled ({FITC-PEG}-ERDTHIRELEDYIDNLLVRVMEETPSILRVPR; reading uncertain)",,,"binding to RAB11a (in words) ([1]; 25 nM FITC-RFP peptide, 30 min room temperature): essentially no binding; binding to RAB25 (in words) (RAB25; 25 nM FITC-RFP peptide): essentially no binding"
"{FITC-PEG-βAla}-RINFRLQN[S5]IDR[S5]IVRIFETNPSILRVK (staple 9-13; reading uncertain) [FITC-RFP24 (optimized stapled peptide, 'IDR' staple)]",,,Kd [2]: 560 nM; Kd (GST-RAB25 (1-180) [3]): 160 nM
"{FITC-PEG-βAla}-RINFRLQDYIDRIIV[S5]IME[S5]NPSILEVK (staple 16-20; reading uncertain) [FITC-RFP12 (FIP3-derived stapled peptide, 'IME' staple)]",20,30,
"{FITC-PEG-βAla}-RQVRELEDYID[S5]LLV[S5]VMEETPNILRIPR (staple 12-16; reading uncertain) [FITC-RFP7 (FIP1-derived stapled peptide, 'IIV' staple)]",110,510,
B1,> 5000,> 5000,
"{FITC-PEG-βAla}-RQVRELENYIDRLLV[S5]V[Nle]E[S5]TPNILRIPR (staple 16-20; reading uncertain) [FITC-RFP14 (optimized stapled peptide, 'IME' staple)]",,,Kd [2]: 320 nM
"{FITC-PEG-βAla}-RINFRLQD[S5]IDR[S5]IVAIMETNPSILEVK (staple 9-13; reading uncertain) [FITC-RFP13 (FIP3-derived stapled peptide, 'IDR' staple)]",80,40,
B2,> 5000,> 5000,
"{FITC-PEG-βAla}-RINFRLQ[S5]YID[S5]IIVAIMETNPSILEVK (staple 8-12; reading uncertain) [FITC-RFP10 (FIP3-derived stapled peptide, 'YID' staple)]",> 5000,> 5000,
B3,> 5000,,Kd (GST-RAB25 (1-180) [6]): > 5000 nM
"{FITC-PEG-βAla}-RQVRELEDYIDRLLV[S5]VME[S5]TPNILRIPR (staple 16-20; reading uncertain) [FITC-RFP8 (FIP1-derived stapled peptide, 'IME' staple)]",40,170,
"{FITC-PEG-βAla}-RINFRLQDYID[S5]IIV[S5]IMETNPSILEVK (staple 12-16; reading uncertain) [FITC-RFP11 (FIP3-derived stapled peptide, 'IIV' staple)]",7,50,
B4,2300,,Kd (GST-RAB25 (1-180) [6]): > 5000 nM
KQEEINFRLQDYIDRIIVAIMETNPSILEVK [FIP3 peptide (residues 726–756)],,,IC50 (His6-RAB25 (1–180)): > 10000 nM
B5,930,2300,
"{FITC-PEG-βAla}-RQVRELE[S5]YID[S5]LLVRVMEETPNILRIPR (staple 8-12; reading uncertain) [FITC-RFP6 (FIP1-derived stapled peptide, 'YID' staple)]",> 5000,> 5000,
"{FITC-PEG-βAla}-RQVRELED[S5]IDR[S5]LVRVMEETPNILRIPR (staple 9-13; reading uncertain) [FITC-RFP9 (FIP1-derived stapled peptide, 'IDR' staple)]",2400,1200,
